Drawing on the supplement of paper PMC10126150, this text covers switch fluorescence ratio for 78 sequences.

± gives the standard deviation of the averaged measurements.

The test system of this data set is ATP. Kind of data set: switch fluorescence ratio, 500 uM ATP over buffer (Cy3 cluster intensity, sum of 5 cycles each) (fold (ratio)); higher = stronger signal-on switching upon ATP binding; sequences stand for … in TCGTCGGCAGCGTCAGATGTGTATAAGAGACAGTTTTTTTTTTTTTTTTTTTTTTTTT…TC. As to conditions: aptamer strand: ATP DNA aptamer (quencher-CACCTGGGGGAGTATTGCGGAGGAAGG + anchor), 100 nM annealed; ATP concentration: 500 uM. The method, boiled down:
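Clusters carrying Cy3-labelled switching strands on a modified Illumina MiSeq flow-cell were annealed to 100 nM quencher-labelled ATP aptamer and imaged in selection buffer. They were imaged again after 15 min with 500 uM ATP at 22 °C, over five buffer/ATP cycles with NaOH stripping and re-annealing in between. For each cluster, the fluorescence ratio is the summed Cy3 intensity of the target cycles divided by that of the buffer cycles, averaged per switch-domain sequence. Clusters outside 100-1000 RFU were left out.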
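Note: ATP exposure 15 min at 22 °C before imaging.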

AGTAAGATCA: the switch fluorescence ratio was 0.992 ± 0.025.

In the case of TTTCAATTTT, the switch fluorescence ratio turned out to be 0.996 ± 0.026.

Take CCTGTAGGCC: the switch fluorescence ratio was determined as 0.998 ± 0.027.

On to AATTGATTGT, for which the switch fluorescence ratio is 0.993 ± 0.051.

On to ATAACACAGG, for which the switch fluorescence ratio came out at 1.279 ± 0.0016.

For CTTTGTCAGT, the switch fluorescence ratio is 0.979 ± 0.03.

As to TTCCAAAATG, the switch fluorescence ratio was determined as 1.005 ± 0.0081.

With CAATGAAATC, the switch fluorescence ratio was found to be 1.02 ± 0.027.

Consider TTCAGTGATT, for which the switch fluorescence ratio was found to be 1 ± 0.022.

As for TCGTAGAAGG, the switch fluorescence ratio worked out at 0.991 ± 0.048.

On to CAATTGCGGG, for which the switch fluorescence ratio was 0.988 ± 0.055.

For the sequence TTTCCGATTT, the switch fluorescence ratio came to 0.9886 ± 0.0024.

In the case of AGATAACTCT, the switch fluorescence ratio amounted to 1.012 ± 0.0083.

As to CATATAGCAC, the switch fluorescence ratio is 1.18 ± 0.019.

For the sequence ATGTTATTGC, the switch fluorescence ratio was found to be 1 ± 0.022.

Consider TTAAGTTATT, for which the switch fluorescence ratio was found to be 1.03 ± 0.056.

As for ACATGTGGGG, the switch fluorescence ratio was 1.04 ± 0.025.

Regarding AATTGTAAAA, the switch fluorescence ratio was 0.988 ± 0.027.

For ATGCGCAGGG, the switch fluorescence ratio was found to be 1.04 ± 0.051.

For the sequence CTTTAACGAG, the switch fluorescence ratio stood at 0.9976 ± 0.0043.

Turning to ATCTATGTTT, the switch fluorescence ratio is 0.9872 ± 0.0041.

As to AATTAGCTGA, the switch fluorescence ratio came out at 1.01 ± 0.029.

Take CCCAGCAGGT: the switch fluorescence ratio was 1.9 ± 0.18.

Consider TATTAGGTGG, for which the switch fluorescence ratio turned out to be 1.1 ± 0.059.

Regarding TTTATCTGAT, the switch fluorescence ratio was determined as 0.965 ± 0.025.

For AAAGCGGGTC, the switch fluorescence ratio turned out to be 1.04 ± 0.015.

As for GATGGGGGAT, the switch fluorescence ratio was found to be 1.01 ± 0.028.

In the case of ATTATGTTGT, the switch fluorescence ratio worked out at 0.981 ± 0.028.

TGTAAGTGCG: the switch fluorescence ratio was found to be 0.9833 ± 0.0063.

For the sequence GTCATTGGAG, the switch fluorescence ratio came to 1.008 ± 0.0079.

Consider ATACGTCGGC, for which the switch fluorescence ratio was 0.984 ± 0.046.

With GAGATCGTCG, the switch fluorescence ratio came out at 0.993 ± 0.01.

In the case of ATGTATCATA, the switch fluorescence ratio turned out to be 0.993 ± 0.025.

As for TTGGTTTATG, the switch fluorescence ratio worked out at 0.993 ± 0.045.

With ACAGTTGCTC, the switch fluorescence ratio is 1.02 ± 0.02.

Turning to ATATATGCTC, the switch fluorescence ratio came to 1.01 ± 0.016.

On to TTATCTTGTT, for which the switch fluorescence ratio was 0.988 ± 0.03.

AAGGCATGCA: the switch fluorescence ratio came out at 1.01 ± 0.032.

With ATTGGTAACC, the switch fluorescence ratio is 1.01 ± 0.039.

As to GCCTGCCCCG, the switch fluorescence ratio is 1.69 ± 0.026.

Take ATTAGGTATA: the switch fluorescence ratio stood at 0.9712 ± 0.0036.

For ACGTTTTGTC, the switch fluorescence ratio came out at 1 ± 0.061.

In the case of GGGTTTAGGG, the switch fluorescence ratio came out at 1 ± 0.045.

Regarding GTTTCAGGTA, the switch fluorescence ratio was 1.02 ± 0.029.

Turning to AAAGGGGGAA, the switch fluorescence ratio was determined as 0.998 ± 0.026.

As to TGGTGATGGT, the switch fluorescence ratio was determined as 1.03 ± 0.058.

Regarding GAATTAAGTT, the switch fluorescence ratio was found to be 1.01 ± 0.033.

On to TCGTTTTTGA, for which the switch fluorescence ratio is 0.985 ± 0.039.

As to CGTTTAGGTA, the switch fluorescence ratio is 0.982 ± 0.048.

As to GGGGTTCC, the switch fluorescence ratio came out at 0.998 ± 0.0092.

Take TCCGTATATT: the switch fluorescence ratio is 1.103 ± 0.0024.

In the case of AAAGGCTGGG, the switch fluorescence ratio turned out to be 1.04 ± 0.087.

As for TGTTGCGTTG, the switch fluorescence ratio came out at 0.954 ± 0.039.

Turning to GTATTTAAAT, the switch fluorescence ratio stood at 0.9855 ± 0.0018.

For GTAGGGGGCG, the switch fluorescence ratio stood at 1.01 ± 0.017.

Turning to CCATGGGGTG, the switch fluorescence ratio was determined as 1.25 ± 0.037.

TTCTATTTTT: the switch fluorescence ratio amounted to 1.03 ± 0.024.

In the case of GGTCTATCGG, the switch fluorescence ratio came out at 0.965 ± 0.018.

Turning to GTGATTAGGG, the switch fluorescence ratio was 0.968 ± 0.022.

Regarding ATCTCTGGTT, the switch fluorescence ratio was found to be 0.966 ± 0.031.

GGGATCCTCC: the switch fluorescence ratio turned out to be 1.027 ± 0.006.

For the sequence TGGTTACTGT, the switch fluorescence ratio is 1.02 ± 0.022.

As for GATATCATCT, the switch fluorescence ratio is 0.99 ± 0.042.

On to TCAGTTATCG, for which the switch fluorescence ratio was found to be 0.985 ± 0.014.

With TAAGTTGAGT, the switch fluorescence ratio came to 1.01 ± 0.0093.

With GAGTTATTTA, the switch fluorescence ratio is 0.982 ± 0.027.

Regarding CGACTGCAGT, the switch fluorescence ratio came out at 1.19 ± 0.014.

Consider TATGTTTTGA, for which the switch fluorescence ratio stood at 0.994 ± 0.033.

As for GGTGTGCCAA, the switch fluorescence ratio is 1 ± 0.022.

ATTCTGTGTG: the switch fluorescence ratio is 0.9648 ± 0.0023.

As to AAGGTAGAGC, the switch fluorescence ratio was 1.03 ± 0.034.

Regarding TTTCGGGGTG, the switch fluorescence ratio amounted to 1.09 ± 0.17.

Take TTGGCAGTTA: the switch fluorescence ratio was 1.03 ± 0.061.

With TTTAATATAT, the switch fluorescence ratio came out at 1.02 ± 0.031.

Consider TTCTTTTATC, for which the switch fluorescence ratio came to 0.983 ± 0.03.

Consider CAGAGAAGGC, for which the switch fluorescence ratio turned out to be 0.991 ± 0.018.

On to AAGTCTGCCA, for which the switch fluorescence ratio amounted to 1.47 ± 0.66.

On to TGGAATGGGT, for which the switch fluorescence ratio turned out to be 0.987 ± 0.032.
